# Test results from US20170183420.
# Experiments:
# Assay in all cases: cell_activity
# TALEN 101621 (synthetic) = settings: pair 101621/101618, K562; 18.1 with 101619, 0 with 101620
# [1] = system: ZFN 20190 (CTLA-4) (synthetic); settings: pair 20190/20189, Cel-I, K562
# TALEN 101627 (synthetic) = settings: pair 101627/101626, K562
# TALEN 101633 (synthetic) = settings: pair 101633/101632, K562
# TALEN 101641 (synthetic) = settings: pair 101641/101640, K562; RVD 16 printed ND
# TALEN 101632 (synthetic) = settings: pair 101633/101632, K562
# TALEN 101640 (synthetic) = settings: pair 101641/101640, K562
# TALEN 101620 (synthetic) = settings: pair 101623/101620, K562; 10.6 with 101622, 0 with 101621
# TALEN 101624 (synthetic) = settings: pair 101625/101624, K562
# [2] = system: ZFN 20186 (CTLA-4) (synthetic); settings: pair 20186/20185, Cel-I, K562
# [3] = system: ZFN 20185 (CTLA-4) (synthetic); settings: pair 20186/20185, Cel-I, K562
# TALEN 101618 (synthetic) = settings: pair 101621/101618, K562; 14.7 with 101622, 6.8 with 101623
# [4] = system: ZFN 25029 (PD1) (synthetic); settings: pair 12942/25029, Cel-I, K562; also active in PBMC (FIG. 2)
# TALEN 101626 (synthetic) = settings: pair 101627/101626, K562
# [5] = system: ZFN 12942 (PD1) (synthetic); settings: pair 12942/25029, Cel-I, K562; also active in PBMC (FIG. 2)
# [6] = system: ZFN 20189 (CTLA-4) (synthetic); settings: pair 20190/20189, Cel-I, K562
sequence,measurement,setting,value
GTAGCACCGCCCAGACGACTG (double strand) [PD1 site 101621],activity,TALEN 101621 (synthetic),23.5 % NHEJ
ACTACCTGGGCATAGGCAACGGAACCCA (double strand) [CTLA-4 site 20190],activity,[1],1.8 % indels
GTGAAGGTGGCGTTGTCCCCT (double strand) [PD1 site 101627],activity,TALEN 101627 (synthetic),12.5 % NHEJ
CTCTCTTTGATCTGCGCCTTG (double strand) [PD1 site 101633/101641],activity,TALEN 101633 (synthetic),14.7 % NHEJ
same,activity,TALEN 101641 (synthetic),23 % NHEJ
CTACCTCTGTGGGGCCATCTC (double strand) [PD1 site 101632/101640],activity,TALEN 101632 (synthetic),14.7 % NHEJ
same,activity,TALEN 101640 (synthetic),23 % NHEJ
ATGCAGATCCCACAGGCGC (double strand) [PD1 site 101620/101624],activity,TALEN 101620 (synthetic),11.6 % NHEJ
same,activity,TALEN 101624 (synthetic),10.1 % NHEJ
ACAGTGCTTCGGCAGGCTGACAGCCAGG (double strand) [CTLA-4 site 20186],activity,[2],3.3 % indels
ACCCGGACCTCAGTGGCTTTGCCTGGAG (double strand) [CTLA-4 site 20185],activity,[3],3.3 % indels
GTGCTCCAGGCATGCAGATCC (double strand) [PD1 site 101618],activity,TALEN 101618 (synthetic),23.5 % NHEJ
CAGTCGTCTGGGCGGTGCT (double strand) [PD1 site 25029],activity,[4],14.7 % NHEJ
CTTCTCCCCAGCCCTGCTCGT (double strand) [PD1 site 101626],activity,TALEN 101626 (synthetic),12.5 % NHEJ
CCAGGGCGCCTGTGGGATCTGCATGCCT (double strand) [PD1 site 12942],activity,[5],14.7 % NHEJ
TGGCGGTGGGTACATGAGCTCCACCTTG (double strand) [CTLA-4 site 20189],activity,[6],1.8 % indels
